Assay results: publication PMC8010463, “Discovery of a novel lactate dehydrogenase tetramerization domain using epitope mapping and peptides” (The Journal of Biological Chemistry, 2021)

Tests used:
tetrameric LDH-1 = test: WaterLOGSY NMR with LDH-1; type: binding, human; settings: LDH-1 15 μM; LP-22 400 μM; 50 mM sodium phosphate pH 7.6, 100 mM NaCl, 10% heavy water; 277 K
Method: (§1) Human LDH-H (full length and truncated)-6-His proteins for 1D NMR were expressed and purified from E. coli, as described previously. All experiments were performed on an Ascend Avance III 600 MHz system equipped with a broadband cryoprobe (Bruker) following a previously described procedure ([16]).
(§2) For WaterLOGSY NMR studies, samples were prepared in 10% heavy water containing 50 mM sodium phosphate buffer, pH 7.6, and 100 mM NaCl. The concentration of LDHs was ranging from 15 to 20 μM of monomer. Ligand binding was detected using a WaterLOGSY ephogsygpno.2 avance-version sequence with a 1 s mixing time, 4096 scans were collected at 277 K to yield a 16 K points free induction decay. Water signal suppression was achieved using an excitation-sculpting scheme, and a 50 ms spinlock was used to suppress protein background signals.

dimeric LDH-Htr [1] = test: MST, peptide binding to LDH-Htr; parameters: species or system human; settings: 1.5 s MST on time, n = 3, labeled LDH-Htr 100 nM, 50 mM sodium phosphate pH 7.6, 100 mM NaCl, 0.01% Tween-20, LP-22 value 'estimated'
Method: MST measurements were performed on a NanoTemper Monolith NT.115 instrument (NanoTemper Technologies) using red dye–N-Hydroxysuccinimide fluorescent labeling. LDH-Htr purified to homogeneity was labeled with the Monolith red dye–N-Hydroxysuccinimide second-generation labeling dye (NanoTemper Technologies), according to the supplied protocol. Measurements were performed in 50 mM sodium phosphate, pH 7.6, and 100 mM NaCl containing 0.01% Tween-20 in standard-treated capillaries (NanoTemper Technologies). The final concentration of proteins in the assay was 100 nM. Ligands were titrated in 1:1 dilutions following manufacturer's recommendations. Experiments were performed in triplicates using 40% light-emitting diode power, high MST power, laser on time 20 s and laser off time 3 s. Peptides were evaluated for their thermophoretic pattern, and Kds were extracted from raw data at a 1.5 s MST on time following the manufacturer's instructions.

dimeric LDH-Htr [2] = test: WaterLOGSY NMR with LDH-Htr; type: binding, human; settings: LDH-Htr 15 μM; LP-22 400 μM; 50 mM sodium phosphate pH 7.6, 100 mM NaCl, 10% heavy water; 277 K
Method: as §1, §2

dimeric LDH-Htr [3] = settings: LDH-Htr 15 μM; peptide 500 μM; n = 3; 50 mM sodium phosphate, 100 mM NaCl, pH 7.6; stabilization
Method: Solutions of proteins (LDH-1, LDH-5, or LDH-Htr) with peptides were evaluated on a Tycho NT.6 device. Evaluations were performed in a 50 mM sodium phosphate and 100 mM NaCl (pH 7.6) buffer. According to standard manufacturer's procedures, samples were poured into capillaries and heated up to 95 °C in 3 min, while following fluorescence emission at 330 and 350 nm. Melting temperatures were extracted from the derivative of the 350/330 nm fluorescence ratios upon increasing temperature.

tetrameric LDH-5 = tetrameric LDH-5 (Homo sapiens, UniProt P00338); test: nanoDSF thermal shift of LDH-5 with peptide; type: binding
LDH-H variants [4] = test: Intrinsic tryptophan fluorescence spectra of variants; type: physicochemical, human; settings: variant 1.3 μM; λexc 286 nm; n = 6; pH 7.6
Method: All spectrophotometric experiments were performed with opaque 96-well plates using a Spectramax m2e spectrophotometer (Molecular Devices) following previously described procedures ([16]).
Full tryptophan fluorescence spectra were recorded using an excitation wavelength of 286 nm and recording the emission spectra from 320 to 400 nm at room temperature. The raw fluorescence of each experiment was subtracted to a corresponding control experiment without the protein. […] For dissociation in subunits, increasing amounts of guanidinium hydrochloride ranging from 0.3 to 2 M were put in contact with the studied proteins (1.3 μM), and fluorescence spectra were recorded afterward.

LDH-H oligomeric state = test: Mass photometry of LDH-H, LDH-Htr and variants; type: physicochemical, human; settings: for Oligomeric state in solution: in words; for Molecular weight (main oligomeric state): mean ± SD, one measurement, repeated at least 3 times with similar results, 1 μl of 1 μM stock into 16 μl PBS; for Relative intensity of dimer peak / Molecular weight of dimer peak / Molecular weight of tetramer peak / Relative intensity of tetramer peak: peak label in figure; for Molecular weight of dimer peak: theoretical dimer 78 kDa (LDH-H), 73.2 kDa (LDH-Htr); for Molecular weight of tetramer peak: theoretical tetramer 155 kDa (LDH-H)
Method: Protein landing was recorded using a Refeyn OneMP (Refeyn Ltd) MP system by adding 1 μl of the protein stock solution (1 μM) directly into a 16 μl drop of filtered PBS solution. Movies were acquired for 60 s (6.000 frames) with the AcquireMP (version 2.1.1; Refeyn Ltd) software using standard settings. Data were analyzed using default settings on DiscoverMP (version 2.1.1; Refeyn Ltd) ([44]). Contrast-to-mass calibration was performed prior to the experiments using a mix of proteins with molecular weights of 66, 146, 480, and 1048 kDa.

LDH-H variants [5] = test: nanoDSF thermal denaturation of LDH-H variants; type: physicochemical, human; settings: for nanoDSF denaturation pattern / Ratio 350/330 nm / Tm: n = 6; for nanoDSF denaturation pattern: in words; for Ratio 350/330 nm: nanoDSF fluorescence emission ratio; for Ratio 350/330 nm / Tm: pH 7.6; for Tm: Tycho NT.6, protein 25 to 65 μM, 50 mM sodium phosphate, 100 mM NaCl, 20% glycerol, mean ± SEM
Method: Solutions of proteins (LDH-H, LDH-Htr or variants), stored in a 50 mM sodium phosphate, 100 mM NaCl, and 20% glycerol, pH 7.6, were evaluated on a Tycho NT.6 device (NanoTemper Technologies) using concentrations ranging from 25 to 65 μM.

| Compound | WaterLOGSY saturation transfer with tetrameric LDH-1 (tetrameric LDH-1) | Kd (dimeric LDH-Htr [1]) [µM] | WaterLOGSY saturation transfer with dimeric LDH-Htr (dimeric LDH-Htr [2]) | ΔTm of dimeric LDH-Htr (dimeric LDH-Htr [3]) [°C] | Dependence of LDH destabilization on protein concentration (tetrameric LDH-5; nanoDSF, Fig. S2) | EC50 (tetrameric LDH-5; read-out: EC50 (destabilization of tetrameric LDH, ΔTm vs peptide concentration)) [µM] | Tryptophan fluorescence intensity compared with LDH-1 (LDH-H variants [4]) | Oligomeric state in solution (LDH-H oligomeric state) | Molecular weight (main oligomeric state) (LDH-H oligomeric state) [kDa] | Relative intensity of dimer peak (LDH-H oligomeric state) [%] | Molecular weight of dimer peak (LDH-H oligomeric state) [kDa] | Molecular weight of tetramer peak (LDH-H oligomeric state) [kDa] | nanoDSF denaturation pattern (LDH-H variants [5]) | Ratio 350/330 nm (LDH-H variants [5]) | Tm (LDH-H variants [5]; nanoDSF) [°C] | Relative intensity of tetramer peak (LDH-H oligomeric state) [%] | Tm difference versus LDH-Htr (LDH-H variants [5]; nanoDSF, higher than LDH-Htr) [°C] |
| --- | --- | --- | --- | --- | --- | --- | --- | --- | --- | --- | --- | --- | --- | --- | --- | --- | --- |
| CSCC[C@H](NC(=O)[C@H](CCC(=O)O)NC(=O)CNC(=O)[C@H](CCCCN)NC(=O)[C@H](CC(C)C)NC(=O)[C@H](CCCCN)NC(=O)[C@H](CC(=O)O)NC(=O)[C@H](CCC(=O)O)NC(=O)[C@@H](N)CC(C)C)C(=O)N[C@@H](CCSC)C(=O)N[C@@H](CC(=O)O)C(=O)N[C@@H](CC(C)C)C(=O)N[C@@H](CCC(N)=O)C(=O)N[C@@H](Cc1c[nH]cn1)C(=O)NCC(=O)N[C@@H](CO)C(=O)N[C@@H](CC(C)C)C(=O)N[C@@H](Cc1ccccc1)C(=O)N[C@@H](CC(C)C)C(=O)N[C@@H](CCC(N)=O)C(=O)N[C@H](C(=O)N1CCC[C@H]1C(N)=O)[C@@H](C)O [LP-22] | not with the tetrameric LDH-1 | 156 | undergoes a saturation transfer with dimeric LDH-Htr | 2.8 | an increasing amount of subunit reverted the effect | – | – | – | – | – | – | – | – | – | – | – | – |
| Ac-GEMMDLQHGSLFLQTP-NH2 [GP-16] | – | 240 | – | – | – | 262 | – | – | – | – | – | – | – | – | – | – | – |
| E62A: LDH-H recombinant alanine variant | – | – | – | – | – | – | decays in fluorescence intensity characteristic of the dimeric forms of LDHs | behaving mainly as dimers in solution | 77 ± 18 | 77 | 77 | 145 | denaturation patterns comparable to dimeric LDH-Htr | 0.95 | 58.9 ± 0.1 | – | – |
| F72A: LDH-H recombinant alanine variant | – | – | – | – | – | – | decays in fluorescence intensity characteristic of the dimeric forms of LDHs | behaving mainly as dimers in solution | 70 ± 17 | 79 | 70 | 141 | denaturation patterns comparable to dimeric LDH-Htr | 0.94 | 53.9 ± 0.1 | 19 | – |
| L71A: LDH-H recombinant alanine variant | – | – | – | – | – | – | – | behaving as a mixture of tetramers and dimers | 148 ± 12 | 36 | 72 | 148 | a lower initial ratio and a red shift | 0.90 | 67.1 ± 0.1 | 56 | 10 |
